Publication PMC9774280, “Colon-Targeted eNAMPT-Specific Peptide Systems for Treatment of DSS-Induced Acute and Chronic Colitis in Mouse” (Antioxidants, 2022)

Experiments:
[1] = target: fluorescently labeled TLR4 (recombinant) (UniProt O00206 24-839, fluorescently labeled); assay: other fluorescence titration; fluorescently labeled TLR4 or CYBB titrated with unlabeled NAMPT; recombinant proteins; Kd by curve fit analysis; conditions: both partners purified
[2] = target: fluorescently labeled CYBB (recombinant) (UniProt P04839 1-570, fluorescently labeled); assay: as above; conditions: both partners purified
Sequence of fluorescently labeled CYBB (recombinant) (P04839 whole entry): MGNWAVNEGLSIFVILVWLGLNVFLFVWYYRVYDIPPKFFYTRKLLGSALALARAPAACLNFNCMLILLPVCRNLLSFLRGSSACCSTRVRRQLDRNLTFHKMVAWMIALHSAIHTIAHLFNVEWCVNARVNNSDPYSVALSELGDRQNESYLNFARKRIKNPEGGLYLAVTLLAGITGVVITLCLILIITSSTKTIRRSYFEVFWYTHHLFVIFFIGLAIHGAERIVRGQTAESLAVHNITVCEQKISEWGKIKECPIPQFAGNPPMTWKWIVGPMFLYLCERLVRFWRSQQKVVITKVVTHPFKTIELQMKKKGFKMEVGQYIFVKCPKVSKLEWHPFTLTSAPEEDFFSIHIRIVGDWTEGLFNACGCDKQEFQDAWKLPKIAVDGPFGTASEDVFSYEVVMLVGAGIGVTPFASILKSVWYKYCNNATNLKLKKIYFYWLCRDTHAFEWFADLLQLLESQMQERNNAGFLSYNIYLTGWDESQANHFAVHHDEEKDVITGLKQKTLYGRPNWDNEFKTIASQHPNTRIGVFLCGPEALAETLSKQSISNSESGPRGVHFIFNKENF

B1: recombinant NAMPT protein (natural protein, UniProt P43490 1-491, looked up)
chain: MNPAAEAEFNILLATDSYKVTHYKQYPPNTSKVYSYFECREKKTENSKLRKVKYEETVFYGLQYILNKYLKGKVVTKEKIQEAKDVYKEHFQDDVFNEKGWNYILEKYDGHLPIEIKAVPEGFVIPRGNVLFTVENTDPECYWLTNWIETILVQSWYPITVATNSREQKKILAKYLLETSGNLDGLEYKLHDFGYRGVSSQETAGIGASAHLVNFKGTDTVAGLALIKKYYGTKDPVPGYSVPAAEHSTITAWGKDHEKDAFEHIVTQFSSVPVSVVSDSYDIYNACEKIWGEDLRHLIVSRSTQAPLIIRPDSGNPLDTVLKVLEILGKKFPVTENSKGYKLLPPYLRVIQGDGVDINTLQEIVEGMKQKMWSIENIAFGSGGGLLQKLTRDLLNCSFKCSYVVTNGLGINVFKDPVADPNKRSKKGRLSLHRTPAGNFVTLEEGKGDLEEYGQDLLHTVFKNGKVTKSYSFDEIRKNAQLNIELEAAHH
notes: recombinant NAMPT protein added to BMDMs and precipitated with anti-His; The His tag is known only from the anti-His precipitation; also called rNAMPT; eNAMPT; source: recombinant
B1 showed a Kd [1] of 219 nM and a Kd [2] of 896 nM.
